B1: E2 (VHH)
VHH: QVQLQESGGGLVQAGGSLRLSCAASSYISRYHTMGWYRQAPGKERSFVAGITWGGLTYYADSVKGRFTVSRDNAKNTVYLQMNSLKPEDTAVYYCAVDGGTRADPYHYYWGQGTQVTVSS
B2: E4 (VHH)
VHH: QVQLQESGGGLVQAGGSLRLSCAASPYISRYHTMGWYRQAPGKEREFVAAITWGGSTYYADSVKGRFTISRDNAKNTVYLQMNSLKPEDTAVYYCAVDGGTYADPYHYYWGQGTQVTVSS
B3: D3 (VHH, not shown: small tags and cut ends)
VHH: QVQLQESGGGLVQAGGSLRLSCAASGNISADRYMGWYRQAPGKEREFVAAIGYGGTTYYADSVKGRFTISRDNAKNTVYLQMNSLKPEDTAVYYCAVVDGAHSRHRYWGQGTQVTVSS

Experiments:
[1] = biological target: Rituximab G2 (galactosylated afucosylated glycoform); assay: SPR; drawn table, KD (G2)
[2] = biological target: Rituximab G2 (galactosylated afucosylated glycoform); assay: SPR, 1:1 Langmuir global fit, 1024 to 32 nM
[3] = biological target: Rituximab G2F (galactosylated fucosylated glycoform); assay: SPR (Biacore T200), 1:1 Langmuir kinetic fit
[4] = biological target: Rituximab G2 (galactosylated afucosylated glycoform); assay: SPR (Biacore T200), 1:1 Langmuir kinetic fit

Row | Binder | Kd [1] [µM] | Kd [2] [µM] | Kd [3] [µM] | Kd [4] [µM]
1 | B1 | 4.74 | – | – | –
2 | B2 | 2.48 | – | – | –
3 | B3 | – | 0.353 | 1.9 | 0.323

From patent US20250188193A1
